Key:
[1] = target: T1, human GITR-Fc (human, UniProt Q9Y5U5 26-162, conjugated with europium cryptate in the HTRF assays); experiment: HTRF competition; competitor GITRL-HA on GITR-Fc
T1 construct: also called hGITR-Fc; hGITRFc; not shown: Fc domain of hIgG1
T1 sequence: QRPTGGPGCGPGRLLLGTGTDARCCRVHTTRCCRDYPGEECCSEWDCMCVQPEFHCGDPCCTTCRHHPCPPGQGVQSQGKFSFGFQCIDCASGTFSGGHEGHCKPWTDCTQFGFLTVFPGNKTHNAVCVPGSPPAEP
Protocol: (§1) The hexameric GITRL FP molecules were titrated into an HTRF assay in which binding of GITRL-HA (hemagglutinin tag) to GITR-Fc was measured. The human GITR Fc was conjugated with europium cryptate and an anti-HA antibody conjugated with XL665 was used to detect the GITRL-HA protein. IC₅₀ values were determined by curve fitting the analyzed data to a four parameter logistic equation with Prism 5.01 software (GraphPad).
The effect of a hexameric GITRL IgG1 FP having the monomeric GITRL IgG1 FP subunit sequence of SEQ ID NO: 6 on human GITRL binding to human GITR was determined using a Homogeneous Time Resolved Fluorescence (HTRF) assay. The GITRL IgG1 FP was titrated into an HTRF assay in which binding of GITRL-HA (hemagglutinin tag) to GITR-Fc was measured. The human GITR-Fc was conjugated with europium cryptate and an anti-HA antibody conjugated with XL665 was used to detect the GITRL-HA protein. IC₅₀ values were determined by curve fitting the analyzed data to a four parameter logistic equation with Prism 6.0x software (GraphPad).

[2] = target: T1, human GITR-Fc; experiment: HTRF competition; competitor GITRL-HA on GITR-Fc; remark: listed apart in the source
Protocol: The effect of the hexameric GITRL FP molecules on human GITRL binding to human GITR was determined using a Homogeneous Time Resolved Fluorescence (HTRF) assay.
as §1

[3] = target: T2, human GITR expressed on cells (human, UniProt Q9Y5U5 26-241); experiment: cell-based or functional assay
T2 sequence: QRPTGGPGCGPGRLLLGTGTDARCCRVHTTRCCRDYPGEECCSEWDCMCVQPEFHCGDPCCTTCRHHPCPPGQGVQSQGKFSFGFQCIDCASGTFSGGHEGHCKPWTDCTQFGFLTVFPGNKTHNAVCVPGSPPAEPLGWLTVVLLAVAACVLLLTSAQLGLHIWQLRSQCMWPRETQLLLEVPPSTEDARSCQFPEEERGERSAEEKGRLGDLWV

fold lower potency than GITRL FP (GCN4) [1]: 8 fold
IC50 [2]: 8.05 nM
EC50 (nM), human GITR transfected NF-κB luciferase gene reporter cell line [3]: 1.54 nM
B1: hexameric GITRL FP (Langerin wt) (Fc fusion, not shown: a dimerising Fc or GST; small tags and cut ends)
chain (part 1 of 2): ASALNTKIRALQGSLENMSKLLKRQNDILQVVS
chain (part 2 of 2): LQLETAKEPCMAKFGPLPSKWQMASSEPPCVNKVSDWKLEILQNGLYLIYGQVAPNANYNDVAPFEVRLYKNKDMIQTLTNKSKIQNVGGTYELHVGDTIDLIFNSEHQVLKNNTYWGIILLANPQFIS

Source: patent publication US20170073386A1 (AstraZeneca / MedImmune, published 2017)
